Assay results published in publication PMC7195849 (Science signaling, 2019).
Blank lines part the entries; values can stand above or below the molecule they belong to. Ends that are not written are not given here. * marks the point of attachment. Biotin = O=C1N[C@H]2[C@H](CS[C@H]2CCCCC(=O)*)N1

Experiments:
[1] = target: PKCθ C2 domain, 1-144 (UniProt Q04759); assay: ELISA, immobilized biotin-peptide, soluble GST-C2; conditions: reference: unphosphorylated Y126 peptide; sites Y126
[2] = target: T1, GST-PKCθ-C2^WT (GST fusion of the C2 domain of human PKCθ, aa 1–144) (human, UniProt Q04759 1-144); assay: ELISA
T1 sequence (looked up): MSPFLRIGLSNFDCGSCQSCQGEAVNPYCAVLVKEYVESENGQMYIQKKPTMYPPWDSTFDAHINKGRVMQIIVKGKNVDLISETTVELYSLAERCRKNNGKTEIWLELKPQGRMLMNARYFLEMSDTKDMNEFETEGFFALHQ

binding against the reference [1]: stronger
Molecule: Zap70 (from UniProt P43403) pY126 peptide

binding result [2]: binds
B1: Zap70 peptide Y126 (non-phosphorylated), N-terminally biotinylated (peptide)
peptide: Biotin-AMVRDYVRQTWK
